For orientation: IC50 means the concentration that gives 50% inhibition.

*1 amine or outer side, *2 acyl side, *3 side chain or, on linkers, in order; H or OH if unused. Where a SMILES comes first, the peptide text is derived from it. Bridges are numbered along the chain shown (N, C = ends). Roman numbers before positions name the chains, in order. Where no end group is shown, it is not given here. [ ]: non-standard residue; d: D form. The star is where a group is joined. X2 = CCNC(=O)CCOCCOCCOCCOCCOCCOCCOCCOCCOCCOCCOCCOCCOCCOCCOCCOCCOCCOCCOCCOCCOCCC(=O)*; CO(CH2CH2O)5CH2CH2CO = O=C(CCOCCOCCOCCOCCOCCC(=O)[*:2])[*:1]; Lys(Me2) = CN(C)CCCC[C@H](N)C(=O)O Bounds are passed on as bounds.

Assay [1] concerns the target T1, human IL-17A (Homo sapiens, UniProt Q16552).
T1 construct: host or cells: added to BJ human fibroblasts (ATCC CRL2522)
As to the kind of experiment: BJ human fibroblast cell assay, IL-17A stimulated GRO-α production. To be noted: BJ human fibroblast cells, 1 ng/ml human IL-17A. The assay is classed as cell-based. An excerpt: For inhibitor screen, human BJ fibroblast cells (ATCC CRL2522) (American Type Culture Collection, VA) were used. For mouse cell based assay MLE-12 mouse epithelial cells (ATCC CRL2110) were used. Both cell lines were maintained in ATCC recommended media.

The target of assay [2] is T2, biotinylated recombinant human IL-17A (rhIL-17, R&D Systems #317-ILB) (human, UniProt Q16552 24-155, biotinylated).
T2 construct: IL-17A, human, recombinant; also called Biotinylated IL-17A; source: bought: R&D Systems
To be noted: both partners purified.

T2 sequence (Q16552 24-155): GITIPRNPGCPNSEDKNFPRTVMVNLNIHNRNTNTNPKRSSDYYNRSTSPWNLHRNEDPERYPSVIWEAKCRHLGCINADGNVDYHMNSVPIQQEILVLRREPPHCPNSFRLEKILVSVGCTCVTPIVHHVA
T1 sequence (Q16552 24-155): as above

`CCNC(=O)CCOCCOCCOCCOCCOCCOCCOCCOCCOCCOCCOCCOCCOCCOCCOCCOCCOCCOCCOCCOCCOCCC(=O)NCCCC[C@H](NC(=O)[C@@H](NC(=O)[C@H](Cc1c[nH]c2ccccc12)NC(=O)[C@H](CC(=O)O)NC(=O)[C@H](Cc1c[nH]c2ccccc12)NC(=O)[C@H](CC(C)C)NC(=O)[C@H](CC(=O)O)NC(=O)[C@H](C)NC(=O)[C@@H]1CCCN1C(=O)[C@@H](NC(=O)[C@@H](NC(=O)[C@@H](NC(=O)[C@@H](NC(=O)[C@@H](NC(C)=O)[C@@H](C)CC)[C@@H](C)O)C(C)C)[C@@H](C)O)[C@@H](C)CC)[C@@H](C)CC)C(=O)N[C@@H](CCCCN(C)C)C(N)=O` [Compound 48] (Ac-ITVTIPADLWDWIK(X2)[Lys(Me2)]-NH2) yielded an IC50 in assay [1] of 21 nM.

As for Ac-TIPADLWDWINK-NH2 [Compound 34], the half-maximal inhibitory concentration (IC50) in assay [1] was above 1000 nM.

The molecule `CC[C@H](C)[C@H](NC(C)=O)C(=O)N[C@H](C(=O)N[C@H](C(=O)N[C@@H](CCCCNC(=O)CCOCCOCCOCCOCCOCCC(=O)NCCCC[C@H](NC(=O)[C@@H](NC(=O)[C@@H](NC(=O)[C@@H](NC(C)=O)[C@@H](C)CC)[C@@H](C)O)C(C)C)C(=O)N[C@H](C(=O)N1CCC[C@H]1C(=O)N[C@@H](C)C(=O)N[C@@H](CC(=O)O)C(=O)N[C@@H](CC(C)C)C(=O)N[C@@H](Cc1c[nH]c2ccccc12)C(=O)N[C@@H](CC(=O)O)C(=O)N[C@@H](Cc1c[nH]c2ccccc12)C(=O)N[C@H](C(=O)N[C@@H](CC(N)=O)C(=O)N[C@@H](CCCCN(C)C)C(N)=O)[C@@H](C)CC)[C@@H](C)CC)C(=O)N[C@H](C(=O)N1CCC[C@H]1C(=O)N[C@@H](C)C(=O)N[C@@H](CC(=O)O)C(=O)N[C@@H](CC(C)C)C(=O)N[C@@H](Cc1c[nH]c2ccccc12)C(=O)N[C@@H](CC(=O)O)C(=O)N[C@@H](Cc1c[nH]c2ccccc12)C(=O)N[C@H](C(=O)N[C@@H](CC(N)=O)C(=O)N[C@@H](CCCCN(C)C)C(N)=O)[C@@H](C)CC)[C@@H](C)CC)C(C)C)[C@@H](C)O` [Compound 40] (I: Ac-ITVKIPADLWDWIN[Lys(Me2)]-NH2 / II: Ac-ITVKIPADLWDWIN[Lys(Me2)]-NH2; linker I:4-II:4 via CO(CH2CH2O)5CH2CH2CO) had an IC50 in assay [1] of 3370 nM.

`CC[C@H](C)[C@H](NC(C)=O)C(=O)N[C@@H](Cc1c[nH]cn1)C(=O)N[C@H](C(=O)N[C@H](C(=O)N[C@H](C(=O)N1CCC[C@H]1C(=O)N[C@@H](C)C(=O)N[C@@H](CC(=O)O)C(=O)N[C@@H](CC(C)C)C(=O)N[C@@H](Cc1c[nH]c2ccccc12)C(=O)N[C@@H](CC(=O)O)C(=O)N[C@@H](Cc1c[nH]c2ccccc12)C(=O)N[C@H](C(=O)N[C@@H](CC(N)=O)C(N)=O)[C@@H](C)CC)[C@@H](C)CC)[C@@H](C)O)C(C)C` [Compound 35] showed an IC50 in assay [1] of 12 nM.

B1: peptide 2 (peptide)
peptide: Ac-IVVTMPADLWDWIRA
modifications: not fully specified (C-terminus)
notes: analogue of peptide 1 with lysine to arginine at position 14; parent of the alanine scan; made on Rink resin; a C-terminal amide is surmised; source: synthetic peptide
Turning to B1, the 50% inhibitory concentration (IC50) in assay [2] is 80 nM.

B2: peptide 3 (peptide)
peptide: Ac-IVVTMPADLWDWIRK
modifications: not fully specified (C-terminus)
notes: analogue of peptide 2, K at position 15; made on Rink resin; a C-terminal amide is surmised; source: synthetic peptide
As to B2, the IC50 in assay [2] stood at 66 nM.

B3: peptide 6 (peptide)
peptide: Ac-IVVTMPADLWDAIRA
notes: analogue of peptide 2, A at position 12; made on Rink resin; a C-terminal amide is surmised; also called W12A variant; source: synthetic peptide
On to B3, for which the IC50 in assay [2] is 7450 nM.

B4: peptide 8 (peptide)
peptide: Ac-IVVTMPADLADWIRA
modifications: not fully specified (C-terminus)
notes: analogue of peptide 2, A at position 10; made on Rink resin; a C-terminal amide is surmised; source: synthetic peptide
Turning to B4, the IC50 in assay [2] came out at 524 nM.

B5: peptide 19 (peptide)
peptide: Ac-IQVTMPADLWDWIRA
modifications: not fully specified (C-terminus)
notes: analogue of peptide 2, Q at position 2; made on Rink resin; a C-terminal amide is surmised; source: synthetic peptide
On to B5, for which the IC50 in assay [2] is 71 nM.

B6: peptide 18 (peptide)
peptide: Ac-IHVTMPADLWDWIRA
modifications: not fully specified (C-terminus)
notes: analogue of peptide 2, H at position 2; made on Rink resin; a C-terminal amide is surmised; also called V2H; source: synthetic peptide
With B6, the half-inhibitory concentration (IC50) in assay [2] came out at 45 nM.

B7: peptide 17 (peptide)
peptide: Ac-AVVTMPADLWDWIRA
modifications: not fully specified (C-terminus)
notes: analogue of peptide 2, A at position 1; made on Rink resin; a C-terminal amide is surmised; source: synthetic peptide
Consider B7, for which the IC50 in assay [2] worked out at 167 nM.

B8: peptide 12 (peptide)
peptide: Ac-IVVTMAADLWDWIRA
modifications: not fully specified (C-terminus)
notes: analogue of peptide 2, A at position 6; made on Rink resin; a C-terminal amide is surmised; source: synthetic peptide
On to B8, for which, in assay [2], the IC50 worked out at 2650 nM.

B9: peptide 28 (peptide)
peptide: Ac-IVVTMPADLWDWINA
modifications: not fully specified (C-terminus)
notes: analogue of peptide 2, N at position 14; made on Rink resin; a C-terminal amide is surmised; source: synthetic peptide
Consider B9, for which the IC50 in assay [2] amounted to 26 nM.

B10: peptide 10 (peptide)
peptide: Ac-IVVTMPAALWDWIRA
modifications: not fully specified (C-terminus)
notes: analogue of peptide 2, A at position 8; made on Rink resin; a C-terminal amide is surmised; source: synthetic peptide
B10: in assay [2], the IC50 stood at 4020 nM.

B11: peptide 14 (peptide)
peptide: Ac-IVVAMPADLWDWIRA
modifications: not fully specified (C-terminus)
notes: analogue of peptide 2, A at position 4; made on Rink resin; a C-terminal amide is surmised; source: synthetic peptide
For B11, in assay [2], the IC50 came to 195 nM.

B12: peptide 23 (peptide)
peptide: Ac-IYVTMPADLWDWIRA
modifications: not fully specified (C-terminus)
notes: analogue of peptide 2, Y at position 2; made on Rink resin; a C-terminal amide is surmised; source: synthetic peptide
Regarding B12, the IC50 in assay [2] was 64 nM.

B13: peptide 27 (peptide)
peptide: Ac-IVVTMPADLWDWIMA
modifications: not fully specified (C-terminus)
notes: analogue of peptide 2, M at position 14; made on Rink resin; a C-terminal amide is surmised; source: synthetic peptide
Turning to B13, in assay [2], the half-inhibitory concentration (IC50) came out at 31 nM.

B14: peptide 22 (peptide)
peptide: Ac-IWVTMPADLWDWIRA
modifications: not fully specified (C-terminus)
notes: analogue of peptide 2, W at position 2; made on Rink resin; a C-terminal amide is surmised; source: synthetic peptide
As to B14, in assay [2], the IC50 stood at 522 nM.

B15: peptide 16 (peptide)
peptide: Ac-IAVTMPADLWDWIRA
modifications: not fully specified (C-terminus)
notes: analogue of peptide 2, A at position 2; made on Rink resin; a C-terminal amide is surmised; source: synthetic peptide
For the molecule B15, the IC50 in assay [2] was 149 nM.

B16: peptide 5 (peptide)
peptide: Ac-IVVTMPADLWDWARA
modifications: not fully specified (C-terminus)
notes: analogue of peptide 2, A at position 13; made on Rink resin; a C-terminal amide is surmised; source: synthetic peptide
For B16, the IC50 in assay [2] came out at 402 nM.

B17: peptide 15 (peptide)
peptide: Ac-IVATMPADLWDWIRA
modifications: not fully specified (C-terminus)
notes: analogue of peptide 2, A at position 3; made on Rink resin; a C-terminal amide is surmised; source: synthetic peptide
On to B17, for which the IC50 in assay [2] stood at 5720 nM.

B18: peptide 9 (peptide)
peptide: Ac-IVVTMPADAWDWIRA
modifications: not fully specified (C-terminus)
notes: analogue of peptide 2, A at position 9; made on Rink resin; a C-terminal amide is surmised; source: synthetic peptide
Regarding B18, in assay [2], the IC50 was determined as 640 nM.

B19: peptide 7 (peptide)
peptide: Ac-IVVTMPADLWAWIRA
modifications: not fully specified (C-terminus)
notes: analogue of peptide 2, A at position 11; made on Rink resin; a C-terminal amide is surmised; source: synthetic peptide
Take B19: in assay [2], the IC50 came out at 474 nM.

B20: peptide 13 (peptide)
peptide: Ac-IVVTAPADLWDWIRA
modifications: not fully specified (C-terminus)
notes: analogue of peptide 2, A at position 5; made on Rink resin; a C-terminal amide is surmised; source: synthetic peptide
Regarding B20, in assay [2], the IC50 was found to be 11 nM.

B21: peptide 20 (peptide)
peptide: Ac-IRVTMPADLWDWIRA
modifications: not fully specified (C-terminus)
notes: analogue of peptide 2, R at position 2; made on Rink resin; a C-terminal amide is surmised; source: synthetic peptide
As to B21, the IC50 in assay [2] stood at 117 nM.

B22: peptide 4 (peptide)
peptide: Ac-IVVTMPADLWDWIAA
modifications: not fully specified (C-terminus)
notes: analogue of peptide 2, A at position 14; made on Rink resin; a C-terminal amide is surmised; source: synthetic peptide
With B22, the concentration for half-maximal inhibition (IC50) in assay [2] is 172 nM.

B23: peptide 21 (peptide)
peptide: Ac-ITVTMPADLWDWIRA
modifications: not fully specified (C-terminus)
notes: analogue of peptide 2, T at position 2; made on Rink resin; a C-terminal amide is surmised; also called V2T; source: synthetic peptide
For B23, the IC50 in assay [2] was found to be 31 nM.

The values above are taken from publication PMC4869123 (Scientific Reports, 2016).
